Target: Dead streptavidin subunit with a polyaspartate insertion in the 3/4 loop (Dd) (Streptomyces avidinii) (UniProt P22629)
Experiment: mixed refold, anion-exchange chromatography and SDS-PAGE without boiling; subunits refolded together from inclusion bodies into PBS; tetramers resolved on Mono-Q (20 mM Tris-HCl pH 8.0, 0-1 M NaCl gradient); peaks run on SDS-PAGE unboiled (tetramer) or boiled (subunit composition), Coomassie

stoichiometry N: 4
Substance: Dead streptavidin subunit with a polyaspartate insertion in the 3/4 loop (Dd) (from UniProt P22629 37-163) (domain or fragment)

Reference: paper PMC4047826
